“And” between values parts separate entries of the source, which are not always exact repeats. Identical values can stand only once.

For assay [1], the target named is T1, Human TfR extracellular domain (ecd) containing an N-terminal His tag (human, UniProt P02786 89-760).
T1 construct: Biotinylated in some ELISAs; also called huTfR; HuTfR
Briefly: SPR (Biacore), IgG, TfR captured by anti-His. How it is done: (§1) Antibody affinities were measured using surface plasmon resonance (“SPR”) (Biacore™ GE Healthcare). Anti-His antibody (Qiagen) was coupled onto four different flow cells of a BIACORE™ CM5 sensor chip (Biacore, Inc., Piscataway, N.J.) at between 6000 and 8000 RU. Immobilization was achieved by random coupling through amino groups using a protocol provided by the manufacturer. 10×HBS-P (Biacore, Inc., Piscataway, N.J.) was diluted in water and served as the dilution and running buffer. Purified human or cyno TfR was captured, followed by a 3-fold dilution series of IgG or Fab that was injected at a flow rate of […] using the single cycle kinetics method. Affinity constants were determined using a simple 1:1 Langmuir binding model or using a steady state model when kₒₙ or koff was beyond the detection limit. The equilibrium dissociation constant (KD) was calculated as the ratio of […].
(§2) The affinity of humanized variants for human and cyno TfR was determined by SPR as IgG (FIG. 4E). Selected clones were also analyzed by SPR as Fab to assess monovalent affinity (Table 7). In both cases, the SPR experiments were performed as described above.
Background: SPR reads the build-up and loss of mass on a sensor chip optically.

In assay [2] the target is T2, Cyno TfR extracellular domain (analogous ecd construct) (cynomolgus monkey, UniProt Q5RDH6 87-760 (Pongo abelii entry)).
T2 construct: it is not expressly said to be the cyno construct; also called purified cyno TfR
T2 chain: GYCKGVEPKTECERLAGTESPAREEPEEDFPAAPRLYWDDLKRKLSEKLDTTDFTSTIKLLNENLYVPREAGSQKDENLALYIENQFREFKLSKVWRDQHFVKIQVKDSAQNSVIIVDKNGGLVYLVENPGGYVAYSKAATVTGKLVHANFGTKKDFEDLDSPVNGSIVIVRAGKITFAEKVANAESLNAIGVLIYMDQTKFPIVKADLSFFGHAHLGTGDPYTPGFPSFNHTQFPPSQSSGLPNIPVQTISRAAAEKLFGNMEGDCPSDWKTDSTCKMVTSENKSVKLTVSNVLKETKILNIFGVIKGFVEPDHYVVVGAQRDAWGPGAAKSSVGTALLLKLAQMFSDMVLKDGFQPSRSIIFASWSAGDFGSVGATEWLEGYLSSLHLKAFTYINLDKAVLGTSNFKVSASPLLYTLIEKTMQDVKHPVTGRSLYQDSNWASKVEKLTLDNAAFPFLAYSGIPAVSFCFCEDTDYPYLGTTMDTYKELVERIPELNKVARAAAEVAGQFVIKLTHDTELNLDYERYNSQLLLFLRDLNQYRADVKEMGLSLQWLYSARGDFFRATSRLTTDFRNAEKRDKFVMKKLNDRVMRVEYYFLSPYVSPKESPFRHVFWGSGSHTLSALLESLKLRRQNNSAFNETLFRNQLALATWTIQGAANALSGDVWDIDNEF
Kind of assay: SPR (Biacore), IgG, TfR captured by anti-His. On the procedure: as §1, §2

The target in assay [3] is T1, Human TfR extracellular domain (ecd) …. Kind of assay: SPR, captured His-TfR, Fab analyte. On the procedure: as §1, §2
The target in assay [4] is T2, Cyno TfR extracellular domain …. Kind of assay: SPR, captured His-TfR, Fab analyte. On the procedure:
as §1, §2

For assay [5] the target is unchanged. Briefly: ratio of KD on cyno TfR to KD on human TfR, SPR. How it is done: as §1, §2

B1: hu16F6.v2 (antibody, V domains shown)
VH: EVQLVESGPGLVKPSETLSLTCTVSGNSITSEYAWNWIRQPPGKGLEWIGYISYSGTTSYNPSLKSRVTISRDTSKNQLSLKLSSVTAADTAVYYCARYGYGNPATRYFDVWGQGTLVTVSS
VL: DIQMTQSPSSLSASVGDRVTITCRASKSISKYLAWYQQKPGKAPKLLLYSGSTLQSGVPSRFSGSGSGTDYTLTISSLQPEDFATYYCQQHNEYPWTFGQGTKVEIK
As usually defined, the Kd is a measure of binding affinity in units of concentration. Low readings indicate a tighter complex, high ones a looser complex. On to B1, for which the results for the Kd in assay [1] and in assay [2] were 4.25 nM and 68.1 nM, respectively.

B2: hu7A4.v5 (antibody, V domains shown)
VH: EVQLVQSGAEVKKPGASVKVSCKASGYTFTDYAMHWVRQAPGQGLEWMGGISTYFGRTNYNQKFKGRVTMTRDTSISTAYMELSRLRSDDTAVYYCARGLSGNYVMDYWGQGTTVTVSS
VL: DIVMTQSPDSLAVSLGERATINCRASESVDSYGNSFMHWYQQKPGQPPKLLIYRASNLESGIPDRFSGSGSGTDFTLTISSLQAEDVAVYYCQQSNEGPPTFGQGTKLEIK
B2 registered a Kd in assay [2] of 1.2 nM.

B3: hu7A4.v8 (antibody, V domains shown)
VH: EVQLVQSGAEVKKPGASVKVSCKGSGYTFTDYAMHWVRQAPGQGLEWMGGISTYFGRTNYNQKFKGRVTMTVDTSISTAYMELSRLRSDDTAVYYCARGLSGNYVMDYWGQGTTVTVSS
VL: DIVMTQSPDSLAVSLGERATINCRASESVDSYGNSFMHWYQQKPGQPPKLLIYRASNLESGIPDRFSGSGSGTDFTLTISSLQAEDVAVYYCQQSNEGPPTFGQGTKLEIK
As for B3, binding in assay [2] was characterised by a dissociation constant (Kd) of 12.3 nM. Compared with the last molecule, the Kd is about 10-fold higher.

B4: Hu15G11.HC32A Fab (Fab, V domains shown)
VH: EVQLVQSGAEVKKPGASVKVSCKASGYTFTSAWMHWVRQAPGQRLEWIGEINPTNGRTNYIEKFKSRATLTVDKSASTAYMELSSLRSEDTAVYYCARGTRAYHYWGQGTMVTVSS
VL: DIQMTQSPSSLSASVGDRVTITCRASDNLYSNLAWYQQKPGKSPKLLVYDATNLADGVPSRFSGSGSGTDYTLTISSLQPEDFATYYCQHFWGTPLTFGQGTKVEIK
notes: Purified Fab; also called Y32A Fab
By koff is commonly meant the rate constant with which the complex falls apart. Read a low koff as slow dissociation. Broadly, the kon is a measure of how fast the partners come together. In assay [3], B4 showed a koff of 0.00178 s⁻¹ and a kon of 238000 M⁻¹ s⁻¹. In assay [4], this molecule came in with a koff of 0.00851 s⁻¹ and a kon of 177000 M⁻¹ s⁻¹. Also, in assay [5], the Cy/hu ratio was found to be 6.4.

B5: Hu15G11.HC52A Fab (Fab, V domains shown)
VH: EVQLVQSGAEVKKPGASVKVSCKASGYTFTSYWMHWVRQAPGQRLEWIGEIAPTNGRTNYIEKFKSRATLTVDKSASTAYMELSSLRSEDTAVYYCARGTRAYHYWGQGTMVTVSS
VL: DIQMTQSPSSLSASVGDRVTITCRASDNLYSNLAWYQQKPGKSPKLLVYDATNLADGVPSRFSGSGSGTDYTLTISSLQPEDFATYYCQHFWGTPLTFGQGTKVEIK
notes: Purified Fab; also called N52A Fab
Regarding B5, the koff in assay [3] is 0.0236 s⁻¹ and 0.0196 s⁻¹; in assay [4], 0.0567 s⁻¹. The kon in assay [3] was 530000 M⁻¹ s⁻¹ and 564000 M⁻¹ s⁻¹; in assay [4] it was 487000 M⁻¹ s⁻¹. Moreover, in assay [5], the Cy/hu ratio worked out at 2.6.

The record behind these values is patent US20210087288A1 (Genentech, published 2021).
